Measured values from the Immune Epitope Database (IEDB).
pKd: −log10 of the molar value.

Experiments:
HLA-A*02:01 [1] = assay: IEDB peptide-MHC binding, purified MHC/competitive/fluorescence; filed as Kd, often an IC50 or EC50 that approximates it; ≥ and ≤ were set here for values at or beyond the usual limits of such assays; conditions: source organism: Human immunodeficiency virus 1
HLA-A*26:02 = assay: as above
HLA-A*68:02 [2] = assay: as above; conditions: source organism: Human immunodeficiency virus 1
HLA-B*08:03 [3] = assay: as above; conditions: source organism: Human immunodeficiency virus 1
HLA-B*15:01 [4] = assay: as above; conditions: source organism: Human immunodeficiency virus 1
HLA-B*39:01 = assay: as above
HLA-A*02:03 = assay: as above; conditions: source organism: Human immunodeficiency virus 1
HLA-A*02:06 = assay: as above; conditions: source organism: Human immunodeficiency virus 1
HLA-A*26:01 [5] = assay: as above; conditions: source organism: Human immunodeficiency virus 1
HLA-A*30:01 = assay: as above; conditions: source organism: Human immunodeficiency virus 1
HLA-B*07:02 [6] = assay: as above; conditions: source organism: Human immunodeficiency virus 1
HLA-B*08:02 = assay: as above; conditions: source organism: Human immunodeficiency virus 1
HLA-B*15:09 = assay: as above
HLA-A*01:01 = assay: IEDB peptide-MHC binding, purified MHC/direct/fluorescence; filed as Kd, often an IC50 or EC50 that approximates it; ≥ and ≤ were set here for values at or beyond the usual limits of such assays; conditions: source organism: Bacillus anthracis
HLA-A*02:01 [7] = assay: as above; conditions: source organism: Bacillus anthracis
HLA-A*03:01 = assay: as above; conditions: source organism: Bacillus anthracis
HLA-A*11:01 = assay: as above; conditions: source organism: Bacillus anthracis
HLA-A*26:01 [8] = assay: as above; conditions: source organism: Bacillus cereus 03BB108
HLA-A*31:01 = assay: as above; conditions: source organism: Bacillus anthracis
HLA-A*68:02 [9] = assay: as above; conditions: source organism: Bacillus anthracis
HLA-A*69:01 = assay: as above; conditions: source organism: Bacillus anthracis
HLA-B*07:02 [10] = assay: as above; conditions: source organism: Bacillus anthracis
HLA-B*08:03 [11] = assay: as above; conditions: source organism: Bacillus cereus 03BB108
HLA-B*15:01 [12] = assay: as above; conditions: source organism: Bacillus anthracis
HLA-B*15:02 = assay: as above; conditions: source organism: Bacillus cereus 03BB108
HLA-B*15:17 = assay: as above; conditions: source organism: Bacillus anthracis
HLA-B*27:05 = assay: as above; conditions: source organism: Bacillus anthracis
HLA-B*35:01 = assay: as above; conditions: source organism: Bacillus cereus 03BB108
HLA-B*46:01 = assay: as above; conditions: source organism: Bacillus anthracis
HLA-B*48:01 = assay: as above; conditions: source organism: Bacillus anthracis
HLA-B*57:01 = assay: as above; conditions: source organism: Bacillus anthracis
HLA-B*58:01 = assay: as above; conditions: source organism: Bacillus anthracis
[13] = source organism: Human immunodeficiency virus 1
[14] = source organism: Bacillus anthracis str. A0488

EIKDTEEAL was tested, and the pKd (HLA-A*02:01 [1]) was ≤ 4.70, the pKd (HLA-A*26:02; [13]) was ≤ 4.70 and the pKd (HLA-A*68:02 [2]) was 6.74. The pKd (HLA-B*08:03 [3]) was ≤ 4.70, the pKd (HLA-B*15:01 [4]) was ≤ 4.70 and the pKd (HLA-B*39:01; [13]) was ≤ 4.70.
For EVKSLFNTV, the pKd (HLA-A*02:01 [1]) was ≤ 4.70, the pKd (HLA-A*02:03) was ≤ 4.70 and the pKd (HLA-A*02:06) was 7.07. The pKd (HLA-A*26:01 [5]) was ≤ 4.70, the pKd (HLA-A*26:02; [13]) was 6.70 and the pKd (HLA-A*30:01) was ≤ 4.70. The pKd (HLA-A*68:02 [2]) was 9.40, the pKd (HLA-B*07:02 [6]) was ≤ 4.70 and the pKd (HLA-B*08:02) was ≤ 4.70. The pKd (HLA-B*15:09; [13]) was ≤ 4.70.
In the case of SQMPPQKIM, the pKd (HLA-A*01:01) was ≤ 4.70, the pKd (HLA-A*02:01 [7]) was ≤ 4.70 and the pKd (HLA-A*03:01) was ≤ 4.70. For the same sequence, the pKd (HLA-A*11:01) was ≤ 4.70, the pKd (HLA-A*26:01 [8]) was ≤ 4.70 and the pKd (HLA-A*31:01) was ≤ 4.70. The pKd (HLA-A*68:02 [9]) was ≤ 4.70, the pKd (HLA-A*69:01) was ≤ 4.70 and the pKd (HLA-B*07:02 [10]) was ≤ 4.70. The pKd (HLA-B*08:03 [11]) was ≤ 4.70, the pKd (HLA-B*15:01 [12]) was 6.90 and the pKd (HLA-B*15:02) was 7.66. For the same sequence, the pKd (HLA-B*15:17) was ≤ 4.70, the pKd (HLA-B*27:05) was ≤ 4.70 and the pKd (HLA-B*35:01) was 6.18. For the same sequence, the pKd (HLA-B*46:01) was ≤ 4.70, the pKd (HLA-B*48:01) was 5.43 and the pKd (HLA-B*57:01) was ≤ 4.70. The pKd (HLA-B*58:01) was ≤ 4.70, the pKd (HLA-A*26:02; [14]) was ≤ 4.70 and the pKd (HLA-B*15:09; [14]) was 6.55. For the same sequence, the pKd (HLA-B*39:01; [14]) was 5.52.
